From article PMC5431965

Tests used:
[1] = target: HydF V261C mutant (cysteine-less background), spin labeled with MTSSL (Thermotoga neapolitana); experiment: PELDOR (DEER) pulse EPR; distances between spin labels on the two monomers; protein about 150 uM in deuterated buffer with 33% v/v deuterated glycerol, quickly frozen, Q-band, 50 K; without and with 10 mM GTP
[2] = target: HydF, wild type recombinant, Thermotoga neapolitana (Thermotoga neapolitana); experiment: SEC; Superdex 200 GL 10 300 in 25 mM Tris-HCl pH 8.0, 200 mM KCl, 1 mM MgCl2; column calibrated with molecular weight standards

stoichiometry N [1] | stoichiometry N [2] | Substance
2 | – | HydF V261C mutant (cysteine-less background), spin labeled with MTSSL (natural protein)
– | 2 | HydF, wild type recombinant, Thermotoga neapolitana (natural protein)
